Tests used:
[1] = tested on: HeLa Kyoto; experiment: solubility in G1/S (NP-40 vs SDS abundance) (log2 ratio); higher = more soluble; conditions: cell cycle stage: G1/S
[2] = tested on: HeLa Kyoto; experiment: melting temperature (median over replicates), in situ; higher = more thermally stable
[3] = tested on: HeLa Kyoto; experiment: solubility change mitosis vs G1/S (difference of NP-40 vs SDS log2 ratios) (log2 ratio difference); higher = more soluble in mitosis
[4] = tested on: HeLa Kyoto; experiment: thermal stability score vs G1/S (z-score of summed log2 fold changes over temperatures); higher = more thermally stable than in G1/S
[5] = cell cycle stage: early G1 (4.5 h after nocodazole release)
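For melting temperature (median over replicates), in situ in this document: HeLa Kyoto cells synchronized by double thymidine or nocodazole block, proteins quantified by TMT10plex mass spectrometry, three independent biological replicates.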
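For solubility change mitosis vs G1/S (difference of NP-40 vs SDS log2 ratios) in this document: synchronized HeLa Kyoto cells (double thymidine block for G1/S, nocodazole release for mitosis), protein amounts in NP-40 versus SDS lysates quantified by mass spectrometry, three biological replicates.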
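For solubility in G1/S (NP-40 vs SDS abundance) in this document: HeLa Kyoto cells arrested at G1/S by double thymidine block, proteins quantified by TMT10plex mass spectrometry in mild NP-40 versus SDS extracts, three biological replicates.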
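For thermal stability score vs G1/S (z-score of summed log2 fold changes over temperatures) in this document: synchronized HeLa Kyoto cells, proteins quantified by TMT10plex mass spectrometry, three biological replicates, mitosis taken 0.5 h after nocodazole release, G1/S directly after double thymidine block.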

Row | Substance | solubility in G1/S (log2) [1] | melting temperature ([2]; cell cycle stage: G1/S) | melting temperature ([2]; cell cycle stage: mitosis) | solubility change mitosis (log2) [3] | thermal stability score [4, 5] | thermal stability score ([4]; cell cycle stage: mitosis)
1 | MEGSLEREAPAGALAAVLKHSSTLPPESTQVRGYDFNRGVNYRALLEAFGTTGFQATNFGRAVQQVNAMIEKKLEPLSQDEDQHADLTQSRRPLTSCTIFLGYTSNLISSGIRETIRYLVQHNMVDVLVTTAGGVEEDLIKCLAPTYLGEFSLRGKELRENGINRIGNLLVPNENYCKFEDWLMPILDQMVMEQNTEGVKWTPSKMIARLGKEINNPESVYYWAQKNHIPVFSPALTDGSLGDMIFFHSYKNPGLVLDIVEDLRLINTQAIFAKCTGMIILGGGVVKHHIANANLMRNGADYAVYINTAQEFDGSDSGARPDEAVSWGKIRVDAQPVKVYADASLVFPLLVAETFAQKMDAFMHEKNED [DHPS] | 0.164 | 56.2 °C | 56.8 °C | -0.0341 | -0.0223 | -1.85
2 | LAMC1 | -0.0818 | 53.5 °C | 53.9 °C | -0.0329 | 2.27 | 3.77
3 | MADDLGDEWWENQPTGAGSSPEASDGEGEGDTEVMQQETVPVPVPSEKTKQPKECFLIQPKERKENTTKTRKRRKKKITDVLAKSEPKPGLPEDLQKLMKDYYSSRRLVIELEELNLPDSCFLKANDLTHSLSSYLKEICPKWVKLRKNHSEKKSVLMLIICSSAVRALELIRSMTAFRGDGKVIKLFAKHIKVQAQVKLLEKRVVHLGVGTPGRIKELVKQGGLNLSPLKFLVFDWNWRDQKLRRMMDIPEIRKEVFELLEMGVLSLCKSESLKLGLF [CMSS1] | -0.211 | 49.9 °C | 50.3 °C | 0.103 | 1.03 | 0.589
4 | MGRCCFYTAGTLSLLLLVTSVTLLVARVFQKAVDQSIEKKIVLRNGTEAFDSWEKPPLPVYTQFYFFNVTNPEEILRGETPRVEEVGPYTYRELRNKANIQFGDNGTTISAVSNKAYVFERDQSVGDPKIDLIRTLNIPVLTVIEWSQVHFLREIIEAMLKAYQQKLFVTHTVDELLWGYKDEILSLIHVFRPDISPYFGLFYEKNGTNDGDYVFLTGEDSYLNFTKIVEWNGKTSLDWWITDKCNMINGTDGDSFHPLITKDEVLYVFPSDFCRSVYITFSDYESVQGLPAFRYKVPAEILANTSDNAGFCIPEGNCLGSGVLNVSICKNGAPIIMSFPHFYQADERFVSAIEGMHPNQEDHETFVDINPLTGIILKAAKRFQINIYVKKLDDFVETGDIRTMVFPVMYLNESVHIDKETASRLKSMINTTLIITNIPYIIMALGVFFGLVFTWLACKGQGSMDEGTADERAPLIRT [SCARB2] | 0.3 | 58.5 °C | 60.2 °C | -0.119 | -2.37 | -3.51
5 | MASKRALVILAKGAEEMETVIPVDVMRRAGIKVTVAGLAGKDPVQCSRDVVICPDASLEDAKKEGPYDVVVLPGGNLGAQNLSESAAVKEILKEQENRKGLIAAICAGPTALLAHEIGFGSKVTTHPLAKDKMMNGGHYTYSENRVEKDGLILTSRGPGTSFEFALAIVEALNGKEVAAQVKAPLVLKD [PARK7] | 0.529 | 56.8 °C | 57.4 °C | 0.0696 | 1.01 | -0.859
6 | MIRNGRGAAGGAEQPGPGGRRAVRVWCDGCYDMVHYGHSNQLRQARAMGDYLIVGVHTDEEIAKHKGPPVFTQEERYKMVQAIKWVDEVVPAAPYVTTLETLDKYNCDFCVHGNDITLTVDGRDTYEEVKQAGRYRECKRTQGVSTTDLVGRMLLVTKAHHSSQEMSSEYREYADSFGKCPGGRNPWTGVSQFLQTSQKIIQFASGKEPQPGETVIYVAGAFDLFHIGHVDFLEKVHRLAERPYIIAGLHFDQEVNHYKGKNYPIMNLHERTLSVLACRYVSEVVIGAPYAVTAELLSHFKVDLVCHGKTEIIPDRDGSDPYQEPKRRGIFRQIDSGSNLTTDLIVQRIITNRLEYEARNQKKEAKELAFLEAARQQAAQPLGERDGDF [PCYT2] | 0.000861 | 54.1 °C | 54.9 °C | -0.199 | 0.197 | 0.0948
7 | MAGKQAVSASGKWLDGIRKWYYNAAGFNKLGLMRDDTIYEDEDVKEAIRRLPENLYNDRMFRIKRALDLNLKHQILPKEQWTKYEEENFYLEPYLKEVIRERKEREEWAKK [UQCRB] | -0.132 | 53.9 °C | 52.2 °C | 0.253 | -3.18 | -2.78
8 | MAELSEEALLSVLPTIRVPKAGDRVHKDECAFSFDTPESEGGLYICMNTFLGFGKQYVERHFNKTGQRVYLHLRRTRRPKEEDPATGTGDPPRKKPTRLAIGVEGGFDLSEEKFELDEDVKIVILPDYLEIARDGLGGLPDIVRDRVTSAVEALLSADSASRKQEVQAWDGEVRQVSKHAFSLKQLDNPARIPPCGWKCSKCDMRENLWLNLTDGSILCGRRYFDGSGGNNHAVEHYRETGYPLAVKLGTITPDGADVYSYDEDDMVLDPSLAEHLSHFGIDMLKMQKTDKTMTELEIDMNQRIGEWELIQESGVPLKPLFGPGYTGIRNLGNSCYLNSVVQVLFSIPDFQRKYVDKLEKIFQNAPTDPTQDFSTQVAKLGHGLLSGEYSKPVPESGDGERVPEQKEVQDGIAPRMFKALIGKGHPEFSTNRQQDAQEFFLHLINMVERNCRSSENPNEVFRFLVEEKIKCLATEKVKYTQRVDYIMQLPVPMDAALNKEELLEYEEKKRQAEEEKMALPELVRAQVPFSSCLEAYGAPEQVDDFWSTALQAKSVAVKTTRFASFPDYLVIQIKKFTFGLDWVPKKLDVSIEMPEELDISQLRGTGLQPGEEELPDIAPPLVTPDEPKGSLGFYGNEDEDSFCSPHFSSPTSPMLDESVIIQLVEMGFPMDACRKAVYYTGNSGAEAAMNWVMSHMDDPDFANPLILPGSSGPGSTSAAADPPPEDCVTTIVSMGFSRDQALKALRATNNSLERAVDWIFSHIDDLDAEAAMDISEGRSAADSISESVPVGPKVRDGPGKYQLFAFISHMGTSTMCGHYVCHIKKEGRWVIYNDQKVCASEKPPKDLGYIYFYQRVAS [USP5] | 0.218 | 52 °C | 51.9 °C | -0.139 | 0.203 | 0.183
9 | MPKAKGKTRRQKFGYSVNRKRLNRNARRKAAPRIECSHIRHAWDHAKSVRQNLAEMGLAVDPNRAVPLRKRKVKAMEVDIEERPKELVRKPYVLNDLEAEASLPEKKGNTLSRDLIDYVRYMVENHGEDYKAMARDEKNYYQDTPKQIRSKINVYKRFYPAEWQDFLDSLQKRKMEVE [NOP16] | -1.15 | 57.3 °C | 54.2 °C | 1.22 | -0.631 | -6.32
10 | MEAAVAAPRPRLLLLVLAAAAAAAAALLPGATALQCFCHLCTKDNFTCVTDGLCFVSVTETTDKVIHNSMCIAEIDLIPRDRPFVCAPSSKTGSVTTTYCCNQDHCNKIELPTTVKSSPGLGPVELAAVIAGPVCFVCISLMLMVYICHNRTVIHHRVPNEEDPSLDRPFISEGTTLKDLIYDMTTSGSGSGLPLLVQRTIARTIVLQESIGKGRFGEVWRGKWRGEEVAVKIFSSREERSWFREAEIYQTVMLRHENILGFIAADNKDNGTWTQLWLVSDYHEHGSLFDYLNRYTVTVEGMIKLALSTASGLAHLHMEIVGTQGKPAIAHRDLKSKNILVKKNGTCCIADLGLAVRHDSATDTIDIAPNHRVGTKRYMAPEVLDDSINMKHFESFKRADIYAMGLVFWEIARRCSIGGIHEDYQLPYYDLVPSDPSVEEMRKVVCEQKLRPNIPNRWQSCEALRVMAKIMRECWYANGAARLTALRIKKTLSQLSQQEGIKM [TGFBR1] | -0.00326 | 50.2 °C | 50.8 °C | -0.101 | 0.718 | 0.929
11 | MGGLFSRWRTKPSTVEVLESIDKEIQALEEFREKNQRLQKLWVGRLILYSSVLYLFTCLIVYLWYLPDEFTARLAMTLPFFAFPLIIWSIRTVIIFFFSKRTERNNEALDDLKSQRKKILEEVMEKETYKTAKLILERFDPDSKKAKECEPPSAGAAVTARPGQEIRQRTAAQRNLSPTPASPNQGPPPQVPVSPGPPKDSSAPGGPPERTVTPALSSNVLPRHLGSPATSVPGMGLHPPGPPLARPILPRERGALDRIVEYLVGDGPQNRYALICQQCFSHNGMALKEEFEYIAFRCAYCFFLNPARKTRPQAPRLPEFSFEKRQVVEGSSSVGPLPSGSVLSSDNQFNEESLEHDVLDDNTEQTDDKIPATEQTNQVIEKASDSEEPEEKQETENEEASVIETNSTVPGADSIPDPELSGESLTAE | -0.311 | 55 °C | 56.9 °C | -0.0648 | -1.47 | -0.475
12 | MTVFFKTLRNHWKKTTAGLCLLTWGGHWLYGKHCDNLLRRAACQEAQVFGNQLIPPNAQVKKATVFLNPAACKGKARTLFEKNAAPILHLSGMDVTIVKTDYEGQAKKLLELMENTDVIIVAGGDGTLQEVVTGVLRRTDEATFSKIPIGFIPLGETSSLSHTLFAESGNKVQHITDATLAIVKGETVPLDVLQIKGEKEQPVFAMTGLRWGSFRDAGVKVSKYWYLGPLKIKAAHFFSTLKEWPQTHQASISYTGPTERPPNEPEETPVQRPSLYRRILRRLASYWAQPQDALSQEVSPEVWKDVQLSTIELSITTRNNQLDPTSKEDFLNICIEPDTISKGDFITIGSRKVRNPKLHVEGTECLQASQCTLLIPEGAGGSFSIDSEEYEAMPVEVKLLPRKLQFFCDPRKREQMLTSPTQ [AGK] | 0.0337 | 53.6 °C | 53.6 °C | -0.034 | -0.493 | -1.02

Reference: the supplement of paper PMC5998384
